Test results taken from publication PMC6385258.

Assays:
[1] = biological target: EGF receptor (EGFR) (human (endogenous in MDA-MB-231, MCF-7, MDA-MB-468)) (UniProt P00533); experiment: single-molecule counting of quantum dots by calibrated 3D deconvolution microscopy (QDC-3DM); unpatterned MDA-MB-468 cells (high EGFR expression); 1 nM QD-EGF for 5 min on ice; washed and fixed
[2] = biological target: EGF receptor (EGFR) (human (endogenous in MDA-MB-231, MCF-7, MDA-MB-468)) (UniProt P00533); experiment: single-molecule counting of quantum dots by calibrated 3D deconvolution microscopy (QDC-3DM); unpatterned MDA-MB-231 cells; QD-EGF at 0.1, 1, 10 or 100 nM for 5 min on ice in serum-free DMEM with 0.8% BSA; washed and fixed
[3] = biological target: EGF receptor (EGFR) (human (endogenous in MDA-MB-231, MCF-7, MDA-MB-468)) (UniProt P00533); experiment: single-molecule counting of quantum dots by calibrated 3D deconvolution microscopy (QDC-3DM); MDA-MB-231 cells on fibronectin micropatterns; 1 nM QD744-EGF pulse for 5 min, washed, kept in serum-free medium; counted 10 and 30 min after the start of the pulse; also with gefitinib 0-5.1 µM
[4] = biological target: EGF receptor (EGFR) (human (endogenous in MDA-MB-231, MCF-7, MDA-MB-468)) (UniProt P00533); experiment: flow cytometry on cells; MDA-MB-231 cells in suspension; QD-EGF 0.06-120 nM (EGF:QD = 0.33) or dye-EGF 0.02-40 nM; 4 °C, 4 h with rocking; PBS with 0.5% BSA; nonspecific binding measured with 2 µM unlabeled EGF and subtracted; one-site fit

mean EGF bound per cell (1 nM QD-EGF) [1] [EGF per cell] | QD-EGF counts per cell (0.1, 1 and 10 nM QD-EGF) [2] [per cell] | mean EGF bound per cell (1 nM QD-EGF) [2] [EGF per cell] | EGF per cell (1 nM QD-EGF) [3] [EGF per cell] | QD-EGF per cell 30 min after the start of a 5 min pulse [3] [per cell] | Kd [4] [nM] | Substance
922 | 0 to 4000 | 80 | 1270 | 800 | – | QD-EGF conjugate: epidermal growth factor with a single N-terminal biotin bound to a streptavidin-conjugated quantum dot (ligand)
– | – | – | – | – | 3.2 | EGF conjugated to a single tetramethylrhodamine dye (ligand)
